In patent US20250025549A1 one finds IC50 and EC50 data, which are given here for 1 substance.

In experiment [1] the target is dipeptidyl peptidase IV (DPP4), the MERS-CoV receptor, His-tagged (human) (UniProt P27487).
The target is the same in experiment [2]. Put plainly: ELISA, spike coated, His-tagged hDPP4 titrated. Background: An ELISA detects its analyte on a solid surface through an enzyme-linked reagent.

What is called IC50 is the concentration needed to halve the response being measured. A lower IC50 goes with higher potency. By EC50 is commonly meant the concentration giving half of the maximal effect. High values mean a less potent agent, low ones a more potent agent.

dipeptidyl peptidase IV (DPP4), the MERS-CoV receptor, His-tagged (human), sequence (P27487 29-766 limits assumed): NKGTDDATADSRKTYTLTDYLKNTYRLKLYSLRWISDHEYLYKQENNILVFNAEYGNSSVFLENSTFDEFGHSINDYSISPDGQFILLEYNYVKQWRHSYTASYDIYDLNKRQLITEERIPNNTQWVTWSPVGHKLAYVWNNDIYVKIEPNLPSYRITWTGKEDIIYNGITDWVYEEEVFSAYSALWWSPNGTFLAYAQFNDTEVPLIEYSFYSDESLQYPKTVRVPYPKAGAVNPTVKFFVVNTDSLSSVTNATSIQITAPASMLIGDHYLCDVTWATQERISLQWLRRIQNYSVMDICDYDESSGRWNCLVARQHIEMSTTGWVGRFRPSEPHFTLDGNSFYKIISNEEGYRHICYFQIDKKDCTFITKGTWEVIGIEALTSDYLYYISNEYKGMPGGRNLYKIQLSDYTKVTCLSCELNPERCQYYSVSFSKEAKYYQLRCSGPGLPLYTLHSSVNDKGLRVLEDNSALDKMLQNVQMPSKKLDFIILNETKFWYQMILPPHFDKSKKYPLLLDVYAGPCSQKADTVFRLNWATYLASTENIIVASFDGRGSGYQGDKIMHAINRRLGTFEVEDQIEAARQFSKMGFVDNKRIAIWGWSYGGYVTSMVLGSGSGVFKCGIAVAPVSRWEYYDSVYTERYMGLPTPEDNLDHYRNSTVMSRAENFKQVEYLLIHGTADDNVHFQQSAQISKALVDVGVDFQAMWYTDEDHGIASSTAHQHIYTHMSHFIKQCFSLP

“wild-type BV2361 protein (SEQ ID NO: 2), native SARS-CoV-2 Spike (S) polypeptide (from UniProt P0DTC2 14-1273) (other; other documents disagree on this pair)” yielded an IC50 in experiment [1] of more than 5 µg/mL. Also, the EC50 in experiment [2] is more than 5 µg/mL.
